Patent publication US20170363632A1, “Biomarker Kit for Metastatic Breast Cancer Prognosis and Uses Thereof” (University of Maryland, Baltimore, priority 2016, published 2017)

Experiments:
[1] = target: T1, HIS-PI3K/p85-SH3 (Homo sapiens, UniProt O00459); assay: GST-pull down assay; assay type: binding; conditions: 3 mg/ml HIS-PI3K/p85-SH3; control GST-protein did not retain
T1 construct: the Src Homology 3 (SH3) domain of the regulatory subunit of PI3K were produced; made in house; host or cells: bacteria (IPTG induction)
T1 sequence (O00459 4-80 limits assumed): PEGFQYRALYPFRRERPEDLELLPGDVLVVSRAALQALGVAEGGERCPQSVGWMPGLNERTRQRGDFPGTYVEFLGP
T1 sequence (Q5VST9 5895-6004 partner limits assumed): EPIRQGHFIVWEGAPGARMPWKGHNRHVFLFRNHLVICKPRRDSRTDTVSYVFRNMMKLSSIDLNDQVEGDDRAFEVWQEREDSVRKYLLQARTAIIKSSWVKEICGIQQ
From the text: (§1) The Pleckstrin Homology (PH) domain of obscurin and the Src Homology 3 (SH3) domain of the regulatory subunit of PI3K were produced as glutathione-S-transferase (GST, PGEX vector; GE Healthcare Life Sciences) and His (pET-30a(+) vector; EMD Millipore, Billerica, Mass.) tagged proteins, respectively, according to the manufacturers' instructions and established methods (19). Human cDNA from normal breast tissue was purchased from a commercial source (Origene, Atlanta, Ga.), and the following sets of primers were used for amplification of the obscurin-PH and the PI3K/p85-SH3 domains: Sense-Obsc-PH: 5′ CCCATCCGCCAGGGC 3′ (SEQ ID NO 1) and Antisense-Obsc-PH: 5′ AGGCAGGGCCAGACG 3′ (NM_001098623.2) (SEQ ID NO 2), and Sense-PI3K/p85-SH3: 5′ CCTGAGGGCTTCCAG 3′ (SEQ ID NO 3) and Antisense-PI3K/p85-SH3: 5′ TCAGGGCCCCAGGAA 3′ (NM_005027) (SEQ ID NO 4). GST- and His-tagged recombinant proteins were expressed by induction with 0.5 mM isopropyl β-D-thioglucopyranoside (IPTG) for 3 h and purified by affinity chromatography on glutathione-Sepharose (Thermo Fisher Scientific) or Talon cobalt (Thermo Fisher Scientific) columns, respectively, following the manufacturers' instructions.
GST-pull down assays were performed (19, 20). […]

[2] = target: T1, HIS-PI3K/p85-SH3; assay: Surface plasmon resonance (Biacore 3000) of obscurin-PH binding to PI3K/p85-SH3; conditions: GST-obscurin-PH immobilized ligand, HIS-PI3K/p85-SH3 analyte 8-250 nM; 1:1 Langmuir model, at equilibrium; read-out: dissociation constant, KD
From the text: as §1, with “GST- and His-tagged recombinant proteins were expressed by induction with 0.5 mM isopropyl β-D-thioglucopyranoside (IPTG) for 3 h and purified by affinity chromatography on glutathione-Sepharose (Thermo Fisher Scientific) or Talon cobalt (Thermo Fisher Scientific) columns, respectively, following the manufacturers' instructions.” left out
Surface plasmon resonance was performed using a BiaCore 3000 instrument as described (6, 19, 21). […] For each analyte concentration, association was measured for 180 sec and dissociation was measured over another 180 sec. Data were evaluated with the 1:1 Langmuir model and the Heterogeneous Ligand model (BIAevaluation Software 3.1, Biacore). The association (ka, M^−1 s^−1) and dissociation (kd, s^−1) rate constants as well as the association (KA, M^−1) and dissociation (KD, M) equilibrium constants were determined.

Kd [2]: ~0.05 µM
B1: GST-obscurin-PH: recombinant Pleckstrin Homology (PH) domain of obscurin fused to GST, bacterially expressed (~37 kDa) (protein)
chain: T1 sequence (Q5VST9 5895-6004 partner limits assumed)
modifications: left off: a dimerising Fc or GST
retention of HIS-PI3K/p85-SH3 in GST-pull down [1]: able to efficiently and specifically retain HIS-PI3K/p85-SH3
